Test results published in patent US7264932B2, “Nuclease inhibitor cocktail” (Applera Corporation, priority 1999, dated 2007).

T1: bovine RNase A (Bos taurus, UniProt P61823)
T1 sequence (P61823 27-150): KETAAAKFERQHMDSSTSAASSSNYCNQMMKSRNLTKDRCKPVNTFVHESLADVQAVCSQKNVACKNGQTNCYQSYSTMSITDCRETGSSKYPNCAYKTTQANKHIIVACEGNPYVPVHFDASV


What was measured:
[1] = system: total RNase activity in murine kidney plus pancreatic lysate; assay: Proteinase K inactivation of total RNase activity in kidney lysate with pancreatic lysate; format: biochemical; settings: 600 ng/uL PK
Method: Murine kidney (40 ul of 0.1 mg/ul) was introduced into a 50 uL reaction with a dilute pancreatic lysate (1 or 10 ul of pancreas at 0.1 mg/ul) prepared in 24 mM Hepes, pH 7.2, 50 mM NaCl, 1 MM MgCl2. All samples were digested at 50C for 5 min in PK buffer at 23C. […] Although proteinase K is a protein-based inhibitor, RNase inactivation occurs by a very different mechanism than a protein inhibitor such as RIP, since proteinase K digests RNase proteins to peptide fragments, thereby destroying the folded (active) conformation of the enzyme.

[2] = system: total RNase activity in spleen lysate; assay: RNaseAlert fluorescent assay, spleen lysate; format: biochemical, mouse; settings: 0.5 U/ul RIP
Method: (§1) Flash-frozen mouse tissues (5 mg) were dounced in 50 ul of 24 mM Hepes, pH 7.2, 50 mM NaCl, 1 mM MgCl2. RNase activity was measured using Ambion's fluorescent RNaseAlert™ assay ([…] substrate, 10 ug/ml ultrapure BSA) via BMG POLARstar Optima Fluorometer according to the manufacturer's protocol. In addition to measuring total RNase activity, lysates were treated with Ap5A, heat (90 C for 10 min), or 0.5 U/ul RIP. Tissue lysate dilutions: pancreas 1:16,200; liver 1:17; thymus 1:17; kidney 1:17; spleen 1:810; lung 1:810. The data were normalized to maximum RNase activity observed in tissue lysate with kidney being the tissue with the lowest RNase activity and assigned the arbitrary unit of 1. […] However, RIP is specific to RNase A superfamily enzymes, where Ap5A, as a RNA analogue, is expected to be a more general RNase inhibitor.

bovine RNase A = biological target: T1, bovine RNase A; assay: Intactness of total RNA (RNA LabChip), bovine RNase A; format: biochemical; settings: 0.2u/ul rip, 5 pg/ul bovine rnase a, e. coli total rna, room temperature 4 min
Method: A total of 100 pg/ul e. […].
Mouse pancreatic tissue (5 mg) was disrupted in 50 ul of 24 mM Hepes, pH 7.2, 50 mM NaCl, 1 mM MgCl2. The diluted lysate (1:20,000) was pre-incubated with 50 uM Benzopurpurin B (BpB) for 30 sec and then added to 100 ng/ul mouse liver total RNA (Ambion) and incubated at 23 C for an additional 4 min. Samples were quenched in a guanidinium lysis buffer, and the RNA purified via MEGAclear™ MAG-96 and eluted with 20 ul nuclease-free water. […] These experiments were conducted in the same fashion except that 100 uM BpB was employed. The sample (1 ul) was analyzed by 2100 BioAnalyzer software (Agilent) after separation on an RNA LabChip.
Pancreatic tissue (5 mg) was dounced in 50 ul of 24 mM Hepes, pH 7.2, 50 mM NaCl, 1 mM MgCl2. The lysate was diluted (1:20,000) and then pre-incubated with 200 uM of 467929. […] All samples were pre-incubated for 30 sec before being added to 100 ng/ul mouse liver total RNA (Ambion) and incubated at 23C for an additional 4 min. The RNA was then immediately purified via MEGAclear™ MAG-96 and eluted with 20 ul nuclease-free water. The recovered RNA (1 ul) was analyzed by 2100 BioAnalyzer software after separation on an RNA LabChip.

[3] = system: total RNase activity in pancreas lysate; assay: RNaseAlert fluorescent assay, pancreas lysate; format: biochemical, mouse; settings: Pancreas, 0.5 U/ul RIP
Method: as §1
Pancreatic tissue (5 mg) was dounced in 50ul of 24 mM Hepes, pH 7.2, 50 mM NaCl, 1 mM MgCl2. Diluted pancreas lysate (1:12,000) was subjected to a 1/10 volume of negatively charged SP resin. RNase activity of the clarified lysate was measured using. Ambion's fluorescent RNaseAlert™ assay (40 nM substrate, 10 ug/ml ultrapure BSA) via BMG POLARstar Optima, according to the manufacturer's instructions. Resin treatment removed >95% of total RNase activity in diluted pancreas lysate. […]

[4] = system: total RNase activity in lung lysate; assay: RNaseAlert fluorescent assay, lung lysate; format: biochemical, mouse; settings: 0.5 U/ul RIP
Method: as §1

Molecule	Fold Reduction ([1]; 1 uL pancreas)	Slope ([1]; 1 uL pancreas)	Fold Reduction ([1]; 10 uL pancreas)	Slope ([1]; 10 uL pancreas)	Slope ([1]; No pancreas)	% Inhibition [2]	Slope/sec Final (After RIP addition) [2]	protection of total RNA from degradation (bovine RNase A)	% Inhibition [3]	Slope/sec Final (After RIP addition) [3]	% Inhibition [4]	Slope/sec Final (After RIP addition) [4]
PK: proteinase K, protease that digests RNase proteins to peptide fragments (protein, UniProt P06873 106-384, looked up) Proteinase K: AAQTNAPWGLARISSTSPGTSTYYYDESAGQGSCVYVIDTGIEASHPEFEGRAQMVKTYYYSSRDGNGHGTHCAGTVGSRTYGVAKKTQLFGVKVLDDNGSGQYSTIIAGMDFVASDKNNRNCPKGVVASLSLGGGYSSSVNSAAARLQSSGVMVAVAAGNNNADARNYSPASEPSVCTVGASDRYDRRSSFSNYGSVLDIFGPGTSILSTWIGGSTRSISGTSMATPHVAGLAAYLMTLGKTTAASACRYIADTANKGDLSNIPFGTVNLLAYNNYQA	1283	0.0938 RFU/sec	242	0.6074 RFU/sec	0.0123 RFU/sec							
RIP: human placental RNase Inhibitor Protein (protein, UniProt P13489 2-461, looked up) Ribonuclease inhibitor: SLDIQSLDIQCEELSDARWAELLPLLQQCQVVRLDDCGLTEARCKDISSALRVNPALAELNLRSNELGDVGVHCVLQGLQTPSCKIQKLSLQNCCLTGAGCGVLSSTLRTLPTLQELHLSDNLLGDAGLQLLCEGLLDPQCRLEKLQLEYCSLSAASCEPLASVLRAKPDFKELTVSNNDINEAGVRVLCQGLKDSPCQLEALKLESCGVTSDNCRDLCGIVASKASLRELALGSNKLGDVGMAELCPGLLHPSSRLRTLWIWECGITAKGCGDLCRVLRAKESLKELSLAGNELGDEGARLLCETLLEPGCQLESLWVKSCSFTAACCSHFSSVLAQNRFLLELQISNNRLEDAGVRELCQGLGQPGSVLRVLWLADCDVSDSSCSSLAATLLANHSLRELDLSNNCLGDAGILQLVESVRQPGCLLEQLVLYDIYWSEEMEDRLQALEKDKPSLRVIS						98.0%	1.08	significant protection	99.7%	0.17	99.3%	0.21
